In patent publication US8076087B2, “Galectin sequences and compositions and methods utilizing same for treating or diagnosing arthritis and other chronic inflammatory diseases” (Medical Research Fund of Tel Aviv Souraskv Medical Center, priority 2002, dated 2011):

Tested on: collagen induced arthritis (CIA)
Test: Collagen-induced arthritis (CIA) in DBA/1 mice, footpad thickness
Assay type: in vivo
Settings: 100 μg per injection
Text: Animal treatment: 44 DBA/1 mice were induced with a joint inflammatory disease by two subcutaneous (s.c.) injections into the base of the tail of type II collagen three weeks apart. Joint inflammation, which appears several days after the last collagen injection, causes enhanced marked foot pad swelling, as well as swelling of other joints. The diameter of nonarthritic footpads is 1.5 to 1.7 mm. A footpad diameter of 1.9 to 2.0 mm was arbitrarily set as disease onset. […] Human galectin-8 protein and variants (100 μg per injection) as well as control injections were injected IP at disease onset and then every day for 11 days. The 44 mice were divided into 5 experimental groups as follows: Group 1 (negative control): systemic injection (starting at CIA onset) of PBS or PBS+30% glycerol (storing dilution solution of galectin proteins) (10 mice). Group 2 (positive control): systemic injection (starting at CIA onset) of anti-mouse TNFα mAb (cat. no. AMC-3012, Biosource Int. Inc. USA) adhering to the standard protocol (i.e., 100 μg antibody/mouse every day for 11 days) (6 mice). Group 3 (positive control): systemic injection of human galectin-8 protein according to the standard protocol (10 mice). Group 4: systemic injection of 100 μg per dose of human galectin-8 variant 1 according to the standard protocol (10 mice). Group 5: systemic injection of 100 μg per dose of human galectin-8 variant 2 (8 mice). The effect on footpad thickness was determined in a “blind” fashion, recording the electronic microcaliper measurements of the thickness of the joints, by picking the animals at random and recording their ears' signs following measurement. The mice were bled prior to disease induction, following disease onset and upon termination of the experiment (approximately day 11). The sera were stored and later analyzed for the presence of rheumatoid factor (RF) and cytokines. The mice were killed upon termination of the experiment and the joints removed from some of the animals for histopathological examination.

B1: galectin-8 variant 1: recombinant galectin-8 variant 1 polypeptide, SEQ ID NO: 6, isoform found in synovial fluid cells of arthritic patients (protein)
chain: MMLSLNNLQNIIYNPDLQSTQASSLELTEISRENVPKSGTPQLPSNRGGDISKIAPRTVYTKSKEARQSHFDLHENTTYELCVKSLPFAARLNTPMGPGRTVVVKGEVNANAKSFNVDLLAGKSKDIALHLNPRLNIKAFVRNSFLQESWGEEERNITSFPFSPGMYFEMIIYCDVREFKVAVNGVHSLEYKHRFKELSSIDTLEINGDIHLLEVRSW
CIA manifestations (footpad swelling) (IP / systemic, from disease onset every day for 11 days): substantially reduced | alleviating the swelling in the footpad, compared with positive controls (every day for 11 days): at least as effective as anti-TNFα mAb and the human galectin-8 recombinant peptide
